Experimental data as given in PMC7145699, “Structural insights into target DNA recognition by R2R3-MYB transcription factors”.

Assays:
WER 12-130 (WER-R2R3) [1] = target: T1, WER 12-130 (WER-R2R3) (Arabidopsis, UniProt Q9SEI0 12-130); assay: ITC; ITC: 150 mM NaCl, 20 mM HEPES pH 7.5, 25 C, 400 uM protein into 20 uM DNA; EMSA: 150 mM NaCl, 20 mM Tris-HCl pH 8.0, on ice 1 h, 0.1 uM DNA, 6% native PAGE 0.5x TBE; details: protein: recombinant; tags: 6xHis-SUMO removed by Ulp1; blunt
T1 sequence: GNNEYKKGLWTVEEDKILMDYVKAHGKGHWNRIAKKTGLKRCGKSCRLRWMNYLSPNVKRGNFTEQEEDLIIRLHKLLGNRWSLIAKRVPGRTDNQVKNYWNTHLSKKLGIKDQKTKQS

WER 12-130 (WER-R2R3) [2] = target: T1, WER 12-130 (WER-R2R3); assay: as above; details: protein: recombinant; tags: 6xHis-SUMO removed by Ulp1; blunt; remark: listed apart in the source
WER 12-130 (WER-R2R3) [3] = target: T1, WER 12-130 (WER-R2R3); assay: as above; details: protein: recombinant; tags: 6xHis-SUMO removed by Ulp1; blunt; remark: listed apart in the source
WER 12-130 (WER-R2R3) [4] = target: T1, WER 12-130 (WER-R2R3); assay: crystal structure (2.15 A); ITC: 150 mM NaCl, 20 mM HEPES pH 7.5, 25 C, 400 uM protein into 20 uM DNA; EMSA: 150 mM NaCl, 20 mM Tris-HCl pH 8.0, on ice 1 h, 0.1 uM DNA, 6% native PAGE 0.5x TBE; details: protein: recombinant; tags: 6xHis-SUMO removed by Ulp1; 5' overhang 1 nt at both ends

B1: C10:G13* (dsDNA)
DNA 1: AAATTCTCCCACCGCATTTTC
DNA 2: GAAAATGCGGTGGGAGAATTT
Kd (WER 12-130 (WER-R2R3) [1]): 2000 nM

B2: 6mA10,6mA11 DNA (6mA6mAC) (dsDNA)
DNA 1: AAATTCTCCAACCGCATTTTC
DNA 2: GAAAATGCGGTTGGAGAATTT
modifications: 6mA at A10 and A11 of strand 1
binding signal (WER 12-130 (WER-R2R3) [2]): > 20 fold decrease in affinity vs N1

B3: C14:G9* (dsDNA)
DNA 1: AAATTCTCCAACCCCATTTTC
DNA 2: GAAAATGGGGTTGGAGAATTT
binding signal (WER 12-130 (WER-R2R3) [3]): 40 fold decrease in affinity vs N1

B4: GL2 promoter WER target DNA (dsDNA)
DNA 1: AAATTCTCCAACCGCATTTTC
DNA 2: GAAAATGCGGTTGGAGAATTT
Kd (WER 12-130 (WER-R2R3) [1]): ~51 nM

B5: 5mC12 DNA (AA5mC) (dsDNA)
DNA 1: AAATTCTCCAACCGCATTTTC
DNA 2: GAAAATGCGGTTGGAGAATTT
modifications: 5mC at C12 of strand 1
Kd (WER 12-130 (WER-R2R3) [1]): 2340 nM

B6: A12:T11* (dsDNA)
DNA 1: AAATTCTCCAAACGCATTTTC
DNA 2: GAAAATGCGTTTGGAGAATTT
Kd (WER 12-130 (WER-R2R3) [1]): 2590 nM

B7: T14:A9* (dsDNA)
DNA 1: AAATTCTCCAACCTCATTTTC
DNA 2: GAAAATGAGGTTGGAGAATTT
binding result (WER 12-130 (WER-R2R3) [1]): binds

B8: 6mA11 DNA (A6mAC) (dsDNA)
DNA 1: AAATTCTCCAACCGCATTTTC
DNA 2: GAAAATGCGGTTGGAGAATTT
modifications: 6mA at A11 of strand 1
binding signal (WER 12-130 (WER-R2R3) [2]): 5 fold decrease in affinity vs N1

B9: 6mA10 DNA (6mAAC) (dsDNA)
DNA 1: AAATTCTCCAACCGCATTTTC
DNA 2: GAAAATGCGGTTGGAGAATTT
modifications: 6mA at A10 of strand 1
binding signal (WER 12-130 (WER-R2R3) [2]): 12 fold decrease in affinity vs N1

B10: A14:T9* (dsDNA)
DNA 1: AAATTCTCCAACCACATTTTC
DNA 2: GAAAATGTGGTTGGAGAATTT
binding result (WER 12-130 (WER-R2R3) [1]): binds

B11: crystal DNA (dsDNA)
DNA 1: AAATTCTCCAACCGCATTTTC
DNA 2: CGAAAATGCGGTTGGAGAATT
binding result (WER 12-130 (WER-R2R3) [4]): binds
